Experimental data as given in publication PMC2270346.

Target: mouse Wnt3a, His-tagged (mouse) (UniProt P27467)
UniProt P27467, sequence (P27467 19-352): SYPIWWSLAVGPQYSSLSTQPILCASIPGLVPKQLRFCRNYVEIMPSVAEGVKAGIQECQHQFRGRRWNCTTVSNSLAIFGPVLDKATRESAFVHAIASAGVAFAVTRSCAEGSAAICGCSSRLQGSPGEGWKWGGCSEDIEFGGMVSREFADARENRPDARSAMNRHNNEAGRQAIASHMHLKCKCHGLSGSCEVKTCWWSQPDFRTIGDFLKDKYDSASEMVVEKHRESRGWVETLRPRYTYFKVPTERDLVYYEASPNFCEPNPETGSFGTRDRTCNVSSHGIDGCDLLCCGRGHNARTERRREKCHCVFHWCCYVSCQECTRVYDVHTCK

Row | Substance | suppression of Wnt3a-induced beta-catenin-TCF-regulated transcription (SUPER8XTOPFLASH reporter) in HEK293T and Huh-7 cells cotransfected with Wnt3a
1 | human FZC18 module, myc-tagged (domain or fragment) | > 80%
2 | human V3Nter, V5-tagged (domain or fragment) | > 80%
